Results published in patent US12338483.

B1: Tobacco Etch Virus protease (protein)
chain: GESLFKGPRDYNPISSTICHLTNESDGHTTSLYGIGFGPFIITNKHLFRRNNGTLLVQSLHGVFKVKNTTTLQQHLIDGRDMIIIRMPKDFPPFPQKLKFREPQREERICLVTTNFQTKSMSSMVSDTSCTFPSSDGIFWKHWIQTKDGQCGSPLVSTRDGFIVGIHSASNFTNTNNYFTSVPKNFMELLTNQEAQQWVSGWRLNADSVLWGGHKVFMSKPEEPFQPVKEATQLMNELVYSQ
B2: West Nile Virus NS3 protease (protein)
chain: GGVLWDTPSPKEYKKGDTTTGVYRIMTRGLLGSYQAGAGVMVEGVFHTLWHTTKGAALMSGEGRLDPYWGSVKEDRLCYGGPWKLQHKWNGHDEVQMIVVEPGKNVKNVQTKPGVFKTPEGEIGAVTLDYPTGTSGSPIVDKNGDVIGLYGNGVIMPNGSYISAIVQGERMEEPAPAGFEPEML

Molecular target: T1, GzmB/MMP AND-gate protease activity sensor
T1 chain: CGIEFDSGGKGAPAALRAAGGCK

| Protein | fluorescent signal in a cleavage assay (AND-gate sensor with GzmB and a second protease) |
| --- | --- |
| B1 | The sensor produced low signals with the viral proteases compared to MMP8 |
| B2 | The sensor produced low signals with the viral proteases compared to MMP8 |
